From the Human Domainome abundance scans (Beltran et al. 2025)
± gives the uncertainty stated by the source.

B1: Intersectin-1, residues 909 to 971; numbered along this chain, Q15811 (parent)
chain: QGEKVEGLQAQALYPWRAKKDNHLNFNKNDVITVLEQQDMWWFGEVQGQKGWFPKSYVKLISG

Variants of: B1
Assay: abundance fitness (aPCA) (normalised: wild type 0, dead -1); higher = more abundant; growth selection in yeast, the domain comes from the species named
Conditions: Homo sapiens

Row | Variant | abundance fitness
1 | QGEKVEGLQAQALYPWRAKKDNHLNFNKNDVITVLEQQDMWWFGEVQGQKGWFPKSYVKLIDG | -0.041 ± 0.22
2 | QGEKVEGLQAQALYPWRAKKDNHLNFNKNDVITVLEQQDMWWFGEVQGQKGWFPKSYVKLIEG | -0.398 ± 0.38
3 | QGEKVEGLQAQALYPWRAKKDNHLNFNKNDVITVLEQQDMWWFGEVQGQKGWFPKSYVKLIFG | -0.63 ± 0.23
4 | QGEKVEGLQAQALYPWRAKKDNHLNFNKNDVITVLEQQDMWWFGEVQGQKGWFPKSYVKLIHG | -0.362 ± 0.23
5 | QGEKVEGLQAQALYPWRAKKDNHLNFNKNDVITVLEQQDMWWFGEVQGQKGWFPKSYVKLIAG | 0.062 ± 0.098
6 | QGEKVEGLQAQALYPWRAKKDNHLNFNKNDVITVLEQQDMWWFGEVQGQKGWFPKSYVKLICG | -0.089 ± 0.16
7 | QGEKVEGLQAQALYPWRAKKDNHLNFNKNDVITVLEQQDMWWFGEVQGQKGWFPKSYVKLIGG | -0.129 ± 0.12
8 | QGEKVEGLQAQALYPWRAKKDNHLNFNKNDVITVLEQQDMWWFGEVQGQKGWFPKSAVKLISG | 0.12 ± 0.11
9 | QGEKVEGLQAQALYPWRAKKDNHLNFNKNDVITVLEQQDMWWFGEVQGQKGWFPKSRVKLISG | -0.013 ± 0.08
10 | QGEKVEGLQAQALYPWRAKKDNHLNFNKNDVITVLEQQDMWWFGEVQGQKGWFPKSSVKLISG | -0.308 ± 0.14
11 | QGEKVEGLQAQALYPWRAKKDNHLNFNKNDVITVLEQQDMWWFGEVQGQKGWFPKSLVKLISG | 0.013 ± 0.13
12 | QGEKVEGLQAQALYPWRAKKDNHLNFNKNDVITVLEQQDMWWFGEVQGQKGWFPKSPVKLISG | -1.02 ± 0.4
13 | QGEKVEGLQAQALYPWRAKKDNHLNFNKNDVITVLEQQDMWWFGEVQGQKGWFPKSCVKLISG | -0.153 ± 0.14
14 | QGEKVEGLQAQALYPWRAKKDNHLNFNKNDVITVLEQQDMWWFGEVQGQKGWFPKSTVKLISG | -0.013 ± 0.16
15 | QGEKVEGLQAQALYPWRAKKDNHLNFNKNDVITVLEQQDMWWFGEVQGQKGWFPKSGVKLISG | -0.572 ± 0.13
16 | QGEKVEGLQAQALYPWRAKKDNHLNFNKNDVITVLEQQDMWWFGEVQGQKGWFPKSVVKLISG | -0.084 ± 0.11
17 | QGEKVEGLQAQALYPWRAKKDNHLNFNKNDVITVLEQQDMWWFGEVQGQKGWFPKSIVKLISG | -0.289 ± 0.28
18 | QGEKVEGLQAQALYPWRAKKDNHLNFNKNDVITVLEQQDMWWFGEVQGQKGWFPKSMVKLISG | 0.008 ± 0.13
19 | QGEKVEGLQAQALYPWRAKKDNHLNFNKNDVITVLEQQDMWWFGEVQGQKGWFPKSKVKLISG | 0.081 ± 0.23
20 | QGEKVEGLQAQALYPWRAKKDNHLNFNKNDVITVLEQQDMWWFGEVQGQKGWFPKSEVKLISG | -0.243 ± 0.22
21 | QGEKVEGLQAQALYPWRAKKDNHLNFNKNDVITVLEQQDMWWFGEVQGQKGWFPKSNVKLISG | 0.212 ± 0.41
22 | QGEKVEGLQAQALYPWRAKKDNHLNFNKNDVITVLEQQDMWWFGEVQGQKGWFPKSWVKLISG | -0.258 ± 0.36

Row | Variant | abundance fitness
23 | QGEKVEGLQAQALYPWRAKKDNHLNFNKNDVITVLEQQDMWWFGEVQGQKGWFPKSHVKLISG | -0.238 ± 0.18
24 | QGEKVEGLQAQALYPWRAKKDNHLNFNKNDVITVLEQQDMWWFGEVQGQKGWFPKSFVKLISG | 0.279 ± 0.34
25 | QGEKVEGLQAQALYPWRAKKDNHLNFNKNDVITVLEQQDMWWFGEVQGQKGWFPKSDVKLISG | -0.399 ± 0.24
26 | QGEKVEGLQAQALYPWRAKKDNHLNFNKNDVITVLEQQDMWWFGEVQGQKGWFPKSQVKLISG | -0.14 ± 0.12
27 | QGEKVEGLQAQALYPWRAKKDNHLNFNKNDVITVLEQQDMWWFGEVQGQKGWFPKSYVKSISG | -0.18 ± 0.095
28 | QGEKVEGLQAQALYPWRAKKDNHLNFNKNDVITVLEQQDMWWFGEVQGQKGWFPKSYVKFISG | -0.536 ± 0.17
29 | QGEKVEGLQAQALYPWRAKKDNHLNFNKNDVITVLEQQDMWWFGEVQGQKGWFPKSYVKNISG | -0.254 ± 0.18
30 | QGEKVEGLQAQALYPWRAKKDNHLNFNKNDVITVLEQQDMWWFGEVQGQKGWFPKSYVKMISG | -0.058 ± 0.2
31 | QGEKVEGLQAQALYPWRAKKDNHLNFNKNDVITVLEQQDMWWFGEVQGQKGWFPKSYVKQISG | 0.049 ± 0.12
32 | QGEKVEGLQAQALYPWRAKKDNHLNFNKNDVITVLEQQDMWWFGEVQGQKGWFPKSYVKIISG | -0.258 ± 0.25
33 | QGEKVEGLQAQALYPWRAKKDNHLNFNKNDVITVLEQQDMWWFGEVQGQKGWFPKSYVKDISG | -0.22 ± 0.23
34 | QGEKVEGLQAQALYPWRAKKDNHLNFNKNDVITVLEQQDMWWFGEVQGQKGWFPKSYVKCISG | 0.029 ± 0.11
35 | QGEKVEGLQAQALYPWRAKKDNHLNFNKNDVITVLEQQDMWWFGEVQGQKGWFPKSYVKGISG | -0.18 ± 0.056
36 | QGEKVEGLQAQALYPWRAKKDNHLNFNKNDVITVLEQQDMWWFGEVQGQKGWFPKSYVKKISG | -0.1 ± 0.11
37 | QGEKVEGLQAQALYPWRAKKDNHLNFNKNDVITVLEQQDMWWFGEVQGQKGWFPKSYVKVISG | -0.06 ± 0.1
38 | QGEKVEGLQAQALYPWRAKKDNHLNFNKNDVITVLEQQDMWWFGEVQGQKGWFPKSYVKTISG | -0.162 ± 0.1
39 | QGEKVEGLQAQALYPWRAKKDNHLNFNKNDVITVLEQQDMWWFGEVQGQKGWFPKSYVKPISG | -0.152 ± 0.12
40 | QGEKVEGLQAQALYPWRAKKDNHLNFNKNDVITVLEQQDMWWFGEVQGQKGWFPKSYVKRISG | -0.119 ± 0.087
41 | QGEKVEGLQAQALYPWRAKKDNHLNFNKNDVITVLEQQDMWWFGEVQGQKGWFPKSYVKLDSG | -0.159 ± 0.14
42 | QGEKVEGLQAQALYPWRAKKDNHLNFNKNDVITVLEQQDMWWFGEVQGQKGWFPKSYVKLWSG | -0.274 ± 0.12
43 | QGEKVEGLQAQALYPWRAKKDNHLNFNKNDVITVLEQQDMWWFGEVQGQKGWFPKSYVKLFSG | 0.08 ± 0.29
44 | QGEKVEGLQAQALYPWRAKKDNHLNFNKNDVITVLEQQDMWWFGEVQGQKGWFPKSYVKLRSG | -0.155 ± 0.065

Row | Variant | abundance fitness
45 | QGEKVEGLQAQALYPWRAKKDNHLNFNKNDVITVLEQQDMWWFGEVQGQKGWFPKSYVKLASG | -0.073 ± 0.097
46 | QGEKVEGLQAQALYPWRAKKDNHLNFNKNDVITVLEQQDMWWFGEVQGQKGWFPKSYVKLKSG | -0.079 ± 0.16
47 | QGEKVEGLQAQALYPWRAKKDNHLNFNKNDVITVLEQQDMWWFGEVQGQKGWFPKSYVKLHSG | -0.438 ± 0.2
48 | QGEKVEGLQAQALYPWRAKKDNHLNFNKNDVITVLEQQDMWWFGEVQGQKGWFPKSYVKLYSG | -0.223 ± 0.27
49 | QGEKVEGLQAQALYPWRAKKDNHLNFNKNDVITVLEQQDMWWFGEVQGQKGWFPKSYVKLVSG | 0.095 ± 0.085
50 | QGEKVEGLQAQALYPWRAKKDNHLNFNKNDVITVLEQQDMWWFGEVQGQKGWFPKSYVKLSSG | -0.301 ± 0.13
51 | QGEKVEGLQAQALYPWRAKKDNHLNFNKNDVITVLEQQDMWWFGEVQGQKGWFPKSYVKLTSG | -0.137 ± 0.26
52 | QGEKVEGLQAQALYPWRAKKDNHLNFNKNDVITVLEQQDMWWFGEVQGQKGWFPKSYVKLMSG | -0.383 ± 0.18
53 | QGEKVEGLQAQALYPWRAKKDNHLNFNKNDVITVLEQQDMWWFGEVQGQKGWFPKSYVKLESG | -0.088 ± 0.13
54 | QGEKVEGLQAQALYPWRAKKDNHLNFNKNDVITVLEQQDMWWFGEVQGQKGWFPKSYVKLLSG | 0.002 ± 0.078
55 | QGEKVEGLQAQALYPWRAKKDNHLNFNKNDVITVLEQQDMWWFGEVQGQKGWFPKSYVKLGSG | -0.207 ± 0.069
56 | QGEKVEGLQAQALYPWRAKKDNHLNFNKNDVITVLEQQDMWWFGEVQGQKGWFPKSYVNLISG | -0.114 ± 0.43
57 | QGEKVEGLQAQALYPWRAKKDNHLNFNKNDVITVLEQQDMWWFGEVQGQKGWFPKSYVRLISG | -0.043 ± 0.09
58 | QGEKVEGLQAQALYPWRAKKDNHLNFNKNDVITVLEQQDMWWFGEVQGQKGWFPKSYVDLISG | -0.615 ± 0.28
59 | QGEKVEGLQAQALYPWRAKKDNHLNFNKNDVITVLEQQDMWWFGEVQGQKGWFPKSYVTLISG | -0.31 ± 0.13
60 | QGEKVEGLQAQALYPWRAKKDNHLNFNKNDVITVLEQQDMWWFGEVQGQKGWFPKSYVLLISG | -0.331 ± 0.14
61 | QGEKVEGLQAQALYPWRAKKDNHLNFNKNDVITVLEQQDMWWFGEVQGQKGWFPKSYVQLISG | -0.109 ± 0.17
62 | QGEKVEGLQAQALYPWRAKKDNHLNFNKNDVITVLEQQDMWWFGEVQGQKGWFPKSYVHLISG | -0.211 ± 0.33
63 | QGEKVEGLQAQALYPWRAKKDNHLNFNKNDVITVLEQQDMWWFGEVQGQKGWFPKSYVWLISG | -0.747 ± 0.24
64 | QGEKVEGLQAQALYPWRAKKDNHLNFNKNDVITVLEQQDMWWFGEVQGQKGWFPKSYVELISG | -0.128 ± 0.14
65 | QGEKVEGLQAQALYPWRAKKDNHLNFNKNDVITVLEQQDMWWFGEVQGQKGWFPKSYVSLISG | -0.122 ± 0.13
66 | QGEKVEGLQAQALYPWRAKKDNHLNFNKNDVITVLEQQDMWWFGEVQGQKGWFPKSYVYLISG | -0.378 ± 0.33

Row | Variant | abundance fitness
67 | QGEKVEGLQAQALYPWRAKKDNHLNFNKNDVITVLEQQDMWWFGEVQGQKGWFPKSYVGLISG | -0.424 ± 0.11
68 | QGEKVEGLQAQALYPWRAKKDNHLNFNKNDVITVLEQQDMWWFGEVQGQKGWFPKSYVALISG | -0.165 ± 0.14
69 | QGEKVEGLQAQALYPWRAKKDNHLNFNKNDVITVLEQQDMWWFGEVQGQKGWFPKSYVCLISG | -0.192 ± 0.2
70 | QGEKVEGLQAQALYPWRAKKDNHLNFNKNDVITVLEQQDMWWFGEVQGQKGWFPKSYVILISG | -0.227 ± 0.21
71 | QGEKVEGLQAQALYPWRAKKDNHLNFNKNDVITVLEQQDMWWFGEVQGQKGWFPKSYVVLISG | -0.234 ± 0.12
72 | QGEKVEGLQAQALYPWRAKKDNHLNFNKNDVITVLEQQDMWWFGEVQGQKGWFPKSYVMLISG | -0.108 ± 0.23
73 | QGEKVEGLQAQALYPWRAKKDNHLNFNKNDVITVLEQQDMWWFGEVQGQKGWFPKSYAKLISG | -0.189 ± 0.088
74 | QGEKVEGLQAQALYPWRAKKDNHLNFNKNDVITVLEQQDMWWFGEVQGQKGWFPKSYLKLISG | -0.812 ± 0.16
75 | QGEKVEGLQAQALYPWRAKKDNHLNFNKNDVITVLEQQDMWWFGEVQGQKGWFPKSYTKLISG | -0.395 ± 0.15
76 | QGEKVEGLQAQALYPWRAKKDNHLNFNKNDVITVLEQQDMWWFGEVQGQKGWFPKSYSKLISG | -0.816 ± 0.23
77 | QGEKVEGLQAQALYPWRAKKDNHLNFNKNDVITVLEQQDMWWFGEVQGQKGWFPKSYGKLISG | -0.881 ± 0.15
78 | QGEKVEGLQAQALYPWRAKKDNHLNFNKNDVITVLEQQDMWWFGEVQGQKGWFPKSYEKLISG | -0.703 ± 0.17
79 | QGEKVEGLQAQALYPWRAKKDNHLNFNKNDVITVLEQQDMWWFGEVQGQKGWFPKSYRKLISG | -1.04 ± 0.34
80 | QGEKVEGLQAQALYPWRAKKDNHLNFNKNDVITVLEQQDMWWFGEVQGQKGWFPKSYWKLISG | -0.87 ± 0.15
81 | QGEKVEGLQAQALYPWRAKKDNHLNFNKNDVITVLEQQDMWWFGEVQGQKGWFPKSYCKLISG | -0.169 ± 0.14
82 | QGEKVEGLQAQALYPWRAKKDNHLNFNKNDVITVLEQQDMWWFGEVQGQKGWFPKSYDKLISG | -0.793 ± 0.47
83 | QGEKVEGLQAQALYPWRAKKDNHLNFNKNDVITVLEQQDMWWFGEVQGQKGWFPKSYPKLISG | -0.379 ± 0.2
84 | QGEKVEGLQAQALYPWRAKKDNHLNFNKNDVITVLEQQDMWWFGEVQGQKGWFPKSYIKLISG | -0.451 ± 0.17
85 | QGEKVEGLQAQALYPWRAKKDNHLNFNKNDVITVLEQQDMWWFGEVQGQKGWFPKSYFKLISG | -0.821 ± 0.37
